Measurements published in US20180066017A1, “CLASS I MHC PHOSPHOPEPTIDES FOR CANCER IMMUNOTHERAPY AND DIAGNOSIS” (Agenus Inc., priority 2010, published 2018).
Square brackets hold non-standard residues; d marks the D form. Ends that are not written are not given here. pS = N[C@@H](COP(=O)(O)O)C(=O)O

Tests used:
HLA A*0201 = HLA A*0201 (Homo sapiens, UniProt P04439, D140Y/D185E/D98H/E176V/E277Q/G131W/G231S/I119V/I121R/I166T/I218V/L300P/L318F/N151K/N90K/P208A/P217A/Q86G/Q94H/R138H/R169H/T345S); assay: Binding of IRS-2 phosphopeptides to HLA A*0201
Excerpt: (§1) We have also shown that we can clone the T-cell receptor on the murine cytotoxic T-cells and then inject the corresponding DNA into normal human T-cells. This process turns them into cytotoxic T-cells that now recognize cancer cells that express the same class I phosphopeptides derived from IRS-2 and β-catenin. […] These experiments also open the door for using class I phosphopeptides in adopted T-cell therapy of cancer. This approach has shown dramatic success in the treatment of advanced stage metastatic melanoma. […] RVApSPTSGV (SEQ ID NO: 1289) binds to HLA A*0201 and both RVApSPTSGVK (SEQ ID NO: 53) and RVApSPTSGVKR (SEQ ID NO: 54) bind to HLA A*0301.

HLA A*0301 = HLA A*0301 (Homo sapiens, UniProt P04439); assay: Binding / presentation of IRS-2 phosphopeptides by HLA A*0301
Excerpt: as §1

[1] = tested on: cancer cell lines COV413.AAD.A4, DM331.AAD.A4, SLM2.AAD.A1, MCF7.AAD.A2, MDAMB231.AAD; JY EBV-BLCL control; assay: Recognition of naturally processed and presented phosphopeptides on cancer cells by phosphopeptide-specific CTL (murine IFNγ release); format: cell-based; conditions: FIG. 1A/1B; for recognition of the phosphopeptide on control cell line by phosphopeptide-specific CTL (murine IFNγ): JY EBV-BLCL control cell line; for recognition of the phosphopeptide on cancer cell lines by phosphopeptide-specific CTL (murine IFNγ): ovarian carcinoma, melanoma and breast carcinoma cell lines
Experimental: FIGS. 1A and 1B are a graphic illustration of the recognition of naturally processed and presented phosphorylated peptides on cancer cells by the phosphopeptide-specific CTL. Phosphopeptide-specific CTL were incubated with the following cancer cell lines or EBV-transformed B lymphoblastoid cell lines (BLCL): COV413.AAD.A4 ovarian carcinoma, DM331.AAD.A4 and SLM2.AAD.A1 melanomas, MCF7.AAD.A2 and MDAMB231.AAD breast carcinomas, and JY EBV-BLCL. Supernatants were harvested and evaluated for the presence of murine IFNγ (produced by murine CTL lines). […] The designation “pS” denotes a phosphoserine residue. The ordinate indicates murine IFNγ in pg/ml. The abscissa indicates each cell line.

Substance	binding to HLA A*0201 (HLA A*0201)	presentation by the A*0301 molecule (HLA A*0301)	recognition of the phosphopeptide on control cell line by phosphopeptide-specific CTL (murine IFNγ) [1]	recognition of the phosphopeptide on cancer cell lines by phosphopeptide-specific CTL (murine IFNγ) [1]	binding to HLA A*0301 (HLA A*0301)
RVApSPTSGV (RVA[pS]PTSGV)	binds	cannot be presented	not the control cell line	recognize the phosphopeptide on all the cancer cell lines	
RVApSPTSGVKR (RVA[pS]PTSGVKR)	Neither of the A*0301 peptides bind				bind
GLLGpSPVRA (GLLG[pS]PVRA) [phosphopeptide with phosphoserine residue recognized by CTL lines 6850 and 6960]			not the control cell line	recognize the phosphopeptide on all the cancer cell lines	
RVApSPTSGVK (RVA[pS]PTSGVK)	Neither of the A*0301 peptides bind				bind
